From the RNAGym collection of RNA variant scans (doi:10.1073/pnas.2313332121) come the findings set out here.

B1: TPR t1 (parent)
chain: GACCAAUCUGCCCUCAGAGCUCGAGAACAUCUUCGGAUGCAGAGGAGGCAGGCUUCGGUGGCGCGAUAGCGCCAACGUCCUCAACCUCCAAUGCAUCCCACCACAUGAUGAUGCCUGAAGAGCCUUGGUUUUUUG

The variants in the data set derive from B1. Description: polymerase ribozyme fitness, log enrichment relative to wild type (log ratio); higher = more active; in vitro selection for triplet polymerase activity. Put shortly: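 Genotype fitness is the logarithm of its enrichment divided by wild-type enrichment, using inverse-variance-weighted averages of replicates. That logarithm is base 2. Enrichment was measured by Illumina sequencing of input and output libraries from one triplicate in vitro selection round, with frozen incubation at −7 °C, on PCR-built, transcribed mutant libraries of each subunit of a heterodimeric triplet polymerase ribozyme, retaining genotypes with ≥10 input reads and ≥1 read per output.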
As for C8G C56A U125A U133G, the “polymerase ribozyme fitness (log ratio)” value was -0.732. Under C8G C85U C86G stands -0.513; under C8G A18C C40U C72A C123G, 0.381. Next, C8G C22G C76A G77A: -5.05; C8G A16G A90C U96C U112A: 0.488. As for C8A U129C, the “polymerase ribozyme fitness (log ratio)” value is -1.05.

For the variant C8G C40A C72A C98U G127C, the “polymerase ribozyme fitness (log ratio)” value is -1.39. With C8G C22G C53U C70U A84C, the “polymerase ribozyme fitness (log ratio)” value was -3.45. C8A G61A G63A: the “polymerase ribozyme fitness (log ratio)” value is -6.8. Turning to C8A G120C, the “polymerase ribozyme fitness (log ratio)” value stood at 1.71.

With C8G C15G C70G C114U, the “polymerase ribozyme fitness (log ratio)” value is -5.64.

C8G C70A U92G: the “polymerase ribozyme fitness (log ratio)” value is -5.61. As for C8A G93U U106A, the “polymerase ribozyme fitness (log ratio)” value was -0.449. Under C8G A37C G48U C85A stands 0.211. Next, C8G A66G C85A C114U: -3.3; C8G C11U A121C U130A: 1.01.

Take C8A U92C: the “polymerase ribozyme fitness (log ratio)” value is -0.565. Under C8A G36C G60U stands -0.605; under C8A G10A C86U G120C, 1.44. Next, C8G C11G G36U: 0.581. With C8A U32C C49A, the “polymerase ribozyme fitness (log ratio)” value came to 0.0595. For C8G A18C C89A, the “polymerase ribozyme fitness (log ratio)” value is -0.827. For C8A G44U G52A C72A, the “polymerase ribozyme fitness (log ratio)” value was -0.705.

As to C8A U59G G107U, the “polymerase ribozyme fitness (log ratio)” value was -5.05.

Turning to C8G C12G G17C C82A C102U C104A, the “polymerase ribozyme fitness (log ratio)” value was -5.44. Under C8A C94A stands -0.131; under C8G A27U G93U, -3.29; under C8G C20G G63C U109G, -3.93. Under C8G C22G U125G U131G stands -6; under C8A G93A A108G, -2.37; under C8A C70U, -0.452.

For C8G C12U G42C G93A, the “polymerase ribozyme fitness (log ratio)” value was -2.42. Next, C8A U9G A41G G69U: -0.102; C8G C73U: 0.902. Next, C8G A18U C22G G117U: -2.97. Under C8G C11A C72U C88U C97U G113U G127C stands -4.01. C8G C89A: the “polymerase ribozyme fitness (log ratio)” value was -1.01. Under C8G C56A C124G stands 1.48; under C8A C80U C88U U133A, -0.694.

Take C8G C70U C115U: the “polymerase ribozyme fitness (log ratio)” value is -2.38. As to C8G A16U, the “polymerase ribozyme fitness (log ratio)” value stood at 0.648. C8G C94A C104U: the “polymerase ribozyme fitness (log ratio)” value came to 0.226. Next, C8G C20A: -1.49; C8G C20U: -1.02. For C8G C70U A74U C98U G110A, the “polymerase ribozyme fitness (log ratio)” value was -6.03. Take C8G C114U: the “polymerase ribozyme fitness (log ratio)” value was -0.759. Under C8A G44C U106G stands -1.03.

C8G C11U C40U G61C A90G C97U U129G: the “polymerase ribozyme fitness (log ratio)” value was -3.08. As for C8A U38A G42U G45A G61U, the “polymerase ribozyme fitness (log ratio)” value was -1.89.

Turning to C8G A16G A41G, the “polymerase ribozyme fitness (log ratio)” value stood at 0.487. C8A C98U: the “polymerase ribozyme fitness (log ratio)” value is -1.12.

With C8A U38A A46C C72U, the “polymerase ribozyme fitness (log ratio)” value is -1.72. Under C8G C49G C82G A118U stands 0.164.

For the variant C8A U109A, the “polymerase ribozyme fitness (log ratio)” value was -4.14. Under C8G A41G G58C A83G G110U A121G stands -4.41; under C8G C13A G57C U78G U112A A118U, 0.98; under C8G G10C G19U A37U C53G, -3.79. Next, C8A G93C A100C C115U: -4.5; C8G C11U U21C U132A: -0.171; C8G C49G: 0.323. Under C8G C11U U59A C62A G63U stands -5.8.

For the variant C8A G42A G60U A121C, the “polymerase ribozyme fitness (log ratio)” value is -0.202. Under C8G C62A stands -0.27; under C8G C62U, 0.179.

As for C8G C12A G17C A29G A46U G47A C72U, the “polymerase ribozyme fitness (log ratio)” value was -6.22. For the variant C8G C62U U106A G113U, the “polymerase ribozyme fitness (log ratio)” value was -1.94. Under C8A G39A G44C C82U C86U G127C stands -2.71; under C8G C13U G47C A74G, -0.735.

Consider C8A G19A C88G A95C, for which the “polymerase ribozyme fitness (log ratio)” value is -5.8. In the case of C8A U133A, the “polymerase ribozyme fitness (log ratio)” value amounted to 0.119.

As for C8G A95G, the “polymerase ribozyme fitness (log ratio)” value came out at 0.646. Regarding C8G A46U G52U C56A C82U C101A, the “polymerase ribozyme fitness (log ratio)” value is -1.86. Under C8A G61C G122A stands -0.605; under C8A G135U, -0.432. Next, C8A G47A C49G C70A U78C: -3.7. Under C8G C80G G113U stands -5.81; under C8G A50U U54C G69U U106A G117A, 0.535; under C8G A50U C53G C99U C104A C115A A121C, -7. As for C8G C15U G39A C62G, the “polymerase ribozyme fitness (log ratio)” value is -2.54.

C8A G110U: the “polymerase ribozyme fitness (log ratio)” value is -0.434. C8A G35A C123A: the “polymerase ribozyme fitness (log ratio)” value is -1.9. As to C8G A83G U87C C101G, the “polymerase ribozyme fitness (log ratio)” value is -1.58. Next, C8G C31U G71U G120U: -3.77. Regarding C8A U14C G39U C102G G117A, the “polymerase ribozyme fitness (log ratio)” value was -6.22. Under C8A G51U stands -3.89; under C8G C76U G135A, -0.923. As to C8A G57C C64U C123U U129A U133G, the “polymerase ribozyme fitness (log ratio)” value amounted to 1.06.

Take C8G A46C C97G C101A C114A U130C: the “polymerase ribozyme fitness (log ratio)” value was -6.93. Under C8G G35C A90G stands -2.66; under C8G C15U C62U C89G G93A C101U G113C C114U G127C, -4.12. Under C8G C12U C15U G25A A27U G42C G61A U78C U112A U125A U131A stands -6.3; under C8G G10A A18G G65C U116G G117A, -5.46; under C8G G17C A29U U87G G120A, -2.2.

With C8G C28G C64U U116G A121G, the “polymerase ribozyme fitness (log ratio)” value was -2.9. For C8A U21C A83G G117A, the “polymerase ribozyme fitness (log ratio)” value was -1.39.

On to C8A C123G, for which the “polymerase ribozyme fitness (log ratio)” value is 2.06. Under C8A U33G A37U stands -6.73; under C8G C49U G127A, -1.03; under C8G C15A G63C, -0.139.

C8G C34G C89A U96G A100U: the “polymerase ribozyme fitness (log ratio)” value was -7.34. Under C8G C15U C62U G135U stands -1.08; under C8G A29U A68G C88U U125G, -3.26. In the case of C8G C34A C72G C82U G110U, the “polymerase ribozyme fitness (log ratio)” value was -4.9. Regarding C8G C15U C22U, the “polymerase ribozyme fitness (log ratio)” value is -4.73.

Regarding C8A G52U G60C A91U U112A A118C U131C, the “polymerase ribozyme fitness (log ratio)” value was -1.41. Next, C8G C56U: 0.485; C8G A100U C115U: -2.51; C8A G17A C73A: -2.25. On to C8G C40A C89A G120A U132A, for which the “polymerase ribozyme fitness (log ratio)” value was 0.693. Under C8A G52A C72G stands 0.47. As for C8A C72U A84C, the “polymerase ribozyme fitness (log ratio)” value was 0.272. Next, C8A G45A A90U G117A: -1.14; C8A G71U: -0.261; C8A G51U U59A A83U C85G U106A: -6.35.

As to C8G C11G C20U G63C, the “polymerase ribozyme fitness (log ratio)” value was -1.38. For the variant C8G G10C C73G U81A C88U, the “polymerase ribozyme fitness (log ratio)” value is -1.77. Under C8G C70G A74U stands -4.41. Next, C8A G35U G58C: -4.74; C8A G52U A91U U112A A118C U131C: -1.36.

As to C8A U87A G107C, the “polymerase ribozyme fitness (log ratio)” value was -4.36. For the variant C8G C11A A50U U81C, the “polymerase ribozyme fitness (log ratio)” value is -2.29. Under C8G A37G G71A C123A U133G stands 1.08; under C8G C13G A16U C49A U129C, -0.993. Next, C8G C34A C40U U55A G69U C79U C98U G107U A111U G117C: -6.38; C8G C62U C115U: -0.929.

On to C8G G10U G69U U81C, for which the “polymerase ribozyme fitness (log ratio)” value was -0.318. In the case of C8G A29U G60A G77C, the “polymerase ribozyme fitness (log ratio)” value was -2.46. Under C8A G47C G48A G58A G60U stands -1.54. Next, C8A C86U G110A G120U: 0.0948; C8G A50U G60U C123A G128U U130A: -0.561; C8A G63U A119U: -1.39. Under C8G C20U G36C C49A A75G A100U stands -2.01; under C8A G36U U112A G127U, 2.16; under C8A G58A G60A, -0.486. C8G C49A U54C G122U: the “polymerase ribozyme fitness (log ratio)” value came out at 0.439.

With C8G C13U C79A G117A U126A, the “polymerase ribozyme fitness (log ratio)” value was -0.523. Next, C8A C86A: 0.557; C8A C86G: -1.3. Under C8A C86U stands 0.466. Under C8G C13G G17A G122A stands -0.902; under C8G C40A C49G G52U G120C U132A, 0.561; under C8G G19C A75U C89G, -2.29. As for C8A U21A C34G U109G, the “polymerase ribozyme fitness (log ratio)” value is -6.49. Next, C8G G19A A119G: -1.07. Under C8G A16C C62A G71A G120C stands -1.27; under C8G A46U, -0.191; under C8G C11G U54C U55G C56U, -1.33. Under C8G C13A U67C stands -4.98; under C8A G44C G57C G117C U126A, -5.88. For C8G C86G C114A, the “polymerase ribozyme fitness (log ratio)” value is 0.194. Under C8G A46G G110A stands -0.456.

C8G C12G C114G: the “polymerase ribozyme fitness (log ratio)” value is -2.57. For C8G C56U C97U, the “polymerase ribozyme fitness (log ratio)” value worked out at 0.547. As to C8G C34A U78C C97A G107A, the “polymerase ribozyme fitness (log ratio)” value is -3.66.

Consider C8G C15U, for which the “polymerase ribozyme fitness (log ratio)” value is -1.19.

For C8G G19U C94U, the “polymerase ribozyme fitness (log ratio)” value was -2.66. For C8A G61C, the “polymerase ribozyme fitness (log ratio)” value was -0.912.

Consider C8A G61U, for which the “polymerase ribozyme fitness (log ratio)” value was -0.146.

Turning to C8A G77A, the “polymerase ribozyme fitness (log ratio)” value was 0.514. Under C8G A29U U132C stands -1.95; under C8A G39C C53G G61C, -0.548. Regarding C8A U59A C82A U96A U112A, the “polymerase ribozyme fitness (log ratio)” value was 0.158. Turning to C8G A46G C72U G110A, the “polymerase ribozyme fitness (log ratio)” value was -0.393. Next, C8G A46G C97U G120U U132A: 1.67.

C8G C79U U96A U130C U133G: the “polymerase ribozyme fitness (log ratio)” value was -0.147. Next, C8G C124U: 0.949. Under C8G C56U C104A U129G stands -1.17.
